Laboratory results taken from US20260166139A1.
“And” between values parts separate entries of the source, which are not always exact repeats. Equal entries are not always repeated.

How the values were obtained:
[1] = molecular target: CTLA4 antigen on the surface of 293F-CTLA4 host cells (UniProt P16410); assay: flow cytometry, mean fluorescence intensity with the isotype control (unlabeled 293F bar: 3.62)
[2] = molecular target: monkey CTLA4-hFc (monkey); assay: ELISA, coat monkey CTLA4-hFc 0.25 ug/ml; antibody 1:9 (start 1 ug/ml)
[3] = molecular target: monkey CTLA4-hFc (monkey); assay: ELISA, coat monkey CTLA4-hFc 0.25 ug/ml; antibody 1 ug/ml
[4] = molecular target: monkey CTLA4-hFc (monkey); assay: ELISA, coat monkey CTLA4-hFc 0.25 ug/ml; antibody 1:729 (start 1 ug/ml)
murine CTLA4 (murine) [5] = molecular target: murine CTLA4 (murine) (UniProt P09793); assay: ELISA, coat murine CTLA4 0.5 ug/ml; antibody 0.1 ug/ml
murine CTLA4 (murine) [6] = molecular target: murine CTLA4 (murine) (UniProt P09793); assay: ELISA, coat murine CTLA4 0.5 ug/ml; antibody 0.01 ug/ml
murine CTLA4 (murine) [7] = molecular target: murine CTLA4 (murine) (UniProt P09793); assay: ELISA, coat murine CTLA4 0.5 ug/ml; antibody 1 ug/ml
murine CTLA4 (murine) [8] = molecular target: murine CTLA4 (murine) (UniProt P09793); assay: ELISA on coated CTLA4, source Mouse (row of 8D2)
murine CTLA4 (murine) [9] = molecular target: murine CTLA4 (murine) (UniProt P09793); assay: ELISA on coated CTLA4, source Mouse (row of 8D2H1L1)
[10] = molecular target: monkey CTLA4-hFc (monkey); assay: ELISA, coat monkey CTLA4-hFc 0.25 ug/ml; antibody 1:3 (start 1 ug/ml)
murine CTLA4 (murine) [11] = molecular target: murine CTLA4 (murine) (UniProt P09793); assay: ELISA, coat murine CTLA4 0.5 ug/ml; antibody 0.001 ug/ml
[12] = molecular target: monkey CTLA4-hFc (monkey); assay: ELISA on coated CTLA4, source Monkey (row of 8D2H2L2)
murine CTLA4 (murine) [13] = molecular target: murine CTLA4 (murine) (UniProt P09793); assay: ELISA, coat murine CTLA4 0.5 ug/ml; antibody 0.03 ug/ml
murine CTLA4 (murine) [14] = molecular target: murine CTLA4 (murine) (UniProt P09793); assay: ELISA, coat murine CTLA4 0.5 ug/ml; antibody 0.003 ug/ml
[15] = molecular target: monkey CTLA4-hFc (monkey); assay: ELISA on coated CTLA4, source Monkey (row of 8D2H3L3)
murine CTLA4 (murine) [16] = molecular target: murine CTLA4 (murine) (UniProt P09793); assay: ELISA, coat murine CTLA4 0.5 ug/ml; antibody 0 ug/ml (blank)
[17] = molecular target: monkey CTLA4-hFc (monkey); assay: ELISA, coat monkey CTLA4-hFc 0.25 ug/ml; antibody 0 (blank)
[18] = molecular target: monkey CTLA4-hFc (monkey); assay: ELISA, coat monkey CTLA4-hFc 0.25 ug/ml; antibody 1:27 (start 1 ug/ml)
[19] = molecular target: monkey CTLA4-hFc (monkey); assay: ELISA, coat monkey CTLA4-hFc 0.25 ug/ml; antibody 1:81 (start 1 ug/ml)
[20] = molecular target: monkey CTLA4-hFc (monkey); assay: ELISA, coat monkey CTLA4-hFc 0.25 ug/ml; antibody 1:243 (start 1 ug/ml)
murine CTLA4 (murine) [21] = molecular target: murine CTLA4 (murine) (UniProt P09793); assay: ELISA on coated CTLA4, source Mouse (row of 8D2(Re))
murine CTLA4 (murine) [22] = molecular target: murine CTLA4 (murine) (UniProt P09793); assay: ELISA, coat murine CTLA4 0.5 ug/ml; antibody 0.3 ug/ml

Sequence of CTLA4 antigen on the surface of 293F-CTLA4 host cells (P16410 36-223 limits assumed): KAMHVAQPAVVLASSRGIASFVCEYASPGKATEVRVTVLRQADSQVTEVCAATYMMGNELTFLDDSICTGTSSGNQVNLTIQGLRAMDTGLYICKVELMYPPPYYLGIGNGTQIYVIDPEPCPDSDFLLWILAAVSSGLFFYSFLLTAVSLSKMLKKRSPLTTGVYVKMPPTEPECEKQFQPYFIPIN

With isotype control (antibody) the MFI [1] was 4.95.
For control antibody 10D1, the absorbance at 450 nm [2] was 0.845 and 0.868, the absorbance at 450 nm [3] was 1.79 and 1.85 and the absorbance at 450 nm [4] was 0.063 and 0.067. The absorbance at 450 nm (murine CTLA4 (murine) [5]) was 2.43 and 2.54, the absorbance at 450 nm (murine CTLA4 (murine) [6]) was 0.673 and 0.794 and the absorbance at 450 nm (murine CTLA4 (murine) [7]) was 3 and 2.98. For the same substance, the EC50 (murine CTLA4 (murine) [8]) was 62 pM, the EC50 (murine CTLA4 (murine) [9]) was 62 pM and the absorbance at 450 nm [10] was 1.34. For the same substance, the absorbance at 450 nm (murine CTLA4 (murine) [11]) was 0.136 and 0.142, the EC50 [12] was 258 pM and the absorbance at 450 nm (murine CTLA4 (murine) [13]) was 1.51. The absorbance at 450 nm (murine CTLA4 (murine) [14]) was 0.292 and 0.328, the EC50 [15] was 258 pM and the absorbance at 450 nm (murine CTLA4 (murine) [16]) was 0.046 and 0.05. The absorbance at 450 nm [17] was 0.049, the absorbance at 450 nm [18] was 0.429 and 0.402 and the absorbance at 450 nm [19] was 0.19 and 0.191. For the same substance, the absorbance at 450 nm [20] was 0.104 and 0.108, the EC50 (murine CTLA4 (murine) [21]) was 62 pM and the absorbance at 450 nm (murine CTLA4 (murine) [22]) was 2.85 and 2.9.
